Earlier results in article PMC12455044.

Target: thrombin (Homo sapiens) (UniProt P00734)

Kd: 10 nM
Substance: PAR-1 (from UniProt P25116)
